Legend:
[1] = system: c-Abl (mouse); assay: phosphorylation enrichment, bacterial display (enrichment ratio); higher = better substrate or ligand; peptides without Tyr show the background
[2] = target: MERTK (UniProt Q12866); assay: as above
[3] = target: FGFR3 (UniProt P22607); assay: as above
[4] = system: c-Src; assay: as above
[5] = target: Fyn (UniProt P06241); assay: as above
[6] = target: Hck (UniProt P08631); assay: as above
[7] = target: Jak2 (UniProt O60674); assay: as above
[8] = system: Fer (mouse); assay: as above
[9] = target: Fes (UniProt P07332); assay: as above
[10] = target: FGFR1 (UniProt P11362); assay: as above
[11] = system: AncSZ; assay: as above
[12] = target: EPHB2 (UniProt P29323); assay: as above
[13] = target: EPHB1 (UniProt P54762); assay: as above
[14] = target: Grb2 SH2 (UniProt P62993); assay: SH2 binding enrichment of the phosphorylated peptide, bacterial display (enrichment ratio); higher = better substrate or ligand; peptides without Tyr show the background
[15] = target: c-Src SH2; assay: as above
[16] = target: SHP2-C SH2; assay: as above
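For SH2 binding enrichment of the phosphorylated peptide, bacterial display in this document: peptide library displayed on the E. coli surface as eCPX fusions, selected cells deep-sequenced, score is each peptide's frequency after selection divided by its frequency in the input.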
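For phosphorylation enrichment, bacterial display in this document: 11-residue human phosphosite peptides and single-mutation variants displayed on the E. coli surface, counted by deep sequencing, each peptide's frequency after selection divided by its frequency in the unselected input library; frequency after pTyr selection over input frequency; kinase dosed for 20-30% of maximal phosphorylation in three min.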

EPHB1, sequence (P54762 whole entry, looked up): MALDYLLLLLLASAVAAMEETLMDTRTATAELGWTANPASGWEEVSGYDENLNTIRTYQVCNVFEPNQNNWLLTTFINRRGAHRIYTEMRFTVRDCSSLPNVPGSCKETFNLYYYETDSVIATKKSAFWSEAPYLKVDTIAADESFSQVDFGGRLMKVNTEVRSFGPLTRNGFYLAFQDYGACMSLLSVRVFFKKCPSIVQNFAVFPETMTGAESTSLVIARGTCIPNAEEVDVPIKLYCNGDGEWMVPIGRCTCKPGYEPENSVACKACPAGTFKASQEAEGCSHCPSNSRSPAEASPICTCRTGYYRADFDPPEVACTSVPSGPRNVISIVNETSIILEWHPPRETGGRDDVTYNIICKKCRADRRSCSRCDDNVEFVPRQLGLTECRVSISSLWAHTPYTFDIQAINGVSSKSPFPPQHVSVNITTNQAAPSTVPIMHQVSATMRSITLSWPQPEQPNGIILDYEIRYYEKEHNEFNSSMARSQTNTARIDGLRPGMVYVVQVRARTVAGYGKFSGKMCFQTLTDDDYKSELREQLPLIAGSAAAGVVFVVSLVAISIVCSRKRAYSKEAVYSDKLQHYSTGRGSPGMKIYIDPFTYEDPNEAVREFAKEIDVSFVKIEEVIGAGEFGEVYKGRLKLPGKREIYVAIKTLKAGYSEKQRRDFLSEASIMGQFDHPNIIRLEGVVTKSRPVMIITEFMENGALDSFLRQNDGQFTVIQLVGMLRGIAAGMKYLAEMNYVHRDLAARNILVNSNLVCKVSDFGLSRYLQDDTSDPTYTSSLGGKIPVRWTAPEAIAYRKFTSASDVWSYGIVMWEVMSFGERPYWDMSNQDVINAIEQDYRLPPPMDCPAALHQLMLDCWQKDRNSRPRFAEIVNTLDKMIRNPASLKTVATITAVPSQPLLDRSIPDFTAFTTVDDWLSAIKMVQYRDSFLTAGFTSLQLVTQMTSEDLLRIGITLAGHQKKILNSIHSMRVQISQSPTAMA
FGFR3, sequence (P22607 whole entry, looked up): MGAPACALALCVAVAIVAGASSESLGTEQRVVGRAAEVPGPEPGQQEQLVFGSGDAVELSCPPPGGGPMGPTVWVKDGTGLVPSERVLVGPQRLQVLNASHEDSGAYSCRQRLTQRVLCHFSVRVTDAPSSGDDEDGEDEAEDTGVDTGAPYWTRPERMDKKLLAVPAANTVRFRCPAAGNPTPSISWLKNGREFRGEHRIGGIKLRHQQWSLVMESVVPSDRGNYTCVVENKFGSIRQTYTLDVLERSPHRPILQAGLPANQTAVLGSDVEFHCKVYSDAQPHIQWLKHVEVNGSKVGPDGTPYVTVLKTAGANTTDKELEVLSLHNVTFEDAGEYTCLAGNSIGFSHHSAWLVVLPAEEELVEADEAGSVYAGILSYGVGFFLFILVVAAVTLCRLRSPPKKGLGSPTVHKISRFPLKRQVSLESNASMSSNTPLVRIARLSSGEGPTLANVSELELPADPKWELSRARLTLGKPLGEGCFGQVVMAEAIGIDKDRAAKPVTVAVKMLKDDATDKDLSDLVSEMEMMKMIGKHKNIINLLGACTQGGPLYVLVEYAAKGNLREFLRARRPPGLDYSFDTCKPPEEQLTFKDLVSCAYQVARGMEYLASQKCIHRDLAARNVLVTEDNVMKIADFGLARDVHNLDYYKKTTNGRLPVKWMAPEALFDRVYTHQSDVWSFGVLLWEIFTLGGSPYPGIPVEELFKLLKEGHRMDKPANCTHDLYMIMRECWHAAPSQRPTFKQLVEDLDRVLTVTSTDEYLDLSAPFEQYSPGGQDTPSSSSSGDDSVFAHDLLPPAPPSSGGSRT
Fyn, sequence (P06241 whole entry, looked up): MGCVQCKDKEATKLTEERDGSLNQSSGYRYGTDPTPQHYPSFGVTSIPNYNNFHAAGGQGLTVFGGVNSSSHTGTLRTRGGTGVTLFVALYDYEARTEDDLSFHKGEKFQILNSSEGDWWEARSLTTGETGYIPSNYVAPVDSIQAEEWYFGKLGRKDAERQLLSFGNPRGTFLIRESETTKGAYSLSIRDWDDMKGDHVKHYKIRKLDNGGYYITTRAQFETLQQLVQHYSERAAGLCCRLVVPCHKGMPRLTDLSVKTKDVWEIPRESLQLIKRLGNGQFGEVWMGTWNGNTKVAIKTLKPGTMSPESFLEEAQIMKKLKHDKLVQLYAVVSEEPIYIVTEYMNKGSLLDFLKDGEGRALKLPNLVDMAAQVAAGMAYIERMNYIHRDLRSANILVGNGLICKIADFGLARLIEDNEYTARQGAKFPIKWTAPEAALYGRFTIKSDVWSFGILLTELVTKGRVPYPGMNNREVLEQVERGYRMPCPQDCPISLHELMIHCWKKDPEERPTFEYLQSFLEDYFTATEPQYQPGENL
MERTK, sequence (Q12866 whole entry, looked up): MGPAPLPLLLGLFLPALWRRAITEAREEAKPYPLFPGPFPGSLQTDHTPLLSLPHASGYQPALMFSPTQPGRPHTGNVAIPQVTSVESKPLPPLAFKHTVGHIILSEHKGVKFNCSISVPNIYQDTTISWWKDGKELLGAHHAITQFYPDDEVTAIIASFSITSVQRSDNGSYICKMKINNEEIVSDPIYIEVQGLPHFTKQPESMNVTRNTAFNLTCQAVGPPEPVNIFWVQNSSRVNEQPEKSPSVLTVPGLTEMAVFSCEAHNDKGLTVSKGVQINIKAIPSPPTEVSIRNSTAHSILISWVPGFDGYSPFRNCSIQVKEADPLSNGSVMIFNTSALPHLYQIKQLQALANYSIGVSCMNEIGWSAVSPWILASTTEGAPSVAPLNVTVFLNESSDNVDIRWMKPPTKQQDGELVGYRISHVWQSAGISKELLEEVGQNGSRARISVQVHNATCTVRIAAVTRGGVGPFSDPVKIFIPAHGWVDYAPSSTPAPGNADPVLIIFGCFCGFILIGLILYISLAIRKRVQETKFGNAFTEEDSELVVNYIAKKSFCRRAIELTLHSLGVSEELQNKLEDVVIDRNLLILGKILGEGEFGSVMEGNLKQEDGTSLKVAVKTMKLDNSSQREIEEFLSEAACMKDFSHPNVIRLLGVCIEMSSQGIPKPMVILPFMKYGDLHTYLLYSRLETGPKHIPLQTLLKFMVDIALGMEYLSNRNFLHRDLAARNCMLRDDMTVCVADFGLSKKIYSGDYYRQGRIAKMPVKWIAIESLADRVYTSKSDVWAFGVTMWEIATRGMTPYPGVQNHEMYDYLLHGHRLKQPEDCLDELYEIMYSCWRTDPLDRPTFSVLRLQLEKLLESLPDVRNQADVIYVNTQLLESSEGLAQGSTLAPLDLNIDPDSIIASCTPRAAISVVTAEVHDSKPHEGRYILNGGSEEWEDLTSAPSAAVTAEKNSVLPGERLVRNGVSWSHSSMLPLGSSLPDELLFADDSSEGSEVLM
Hck, sequence (P08631 whole entry, looked up): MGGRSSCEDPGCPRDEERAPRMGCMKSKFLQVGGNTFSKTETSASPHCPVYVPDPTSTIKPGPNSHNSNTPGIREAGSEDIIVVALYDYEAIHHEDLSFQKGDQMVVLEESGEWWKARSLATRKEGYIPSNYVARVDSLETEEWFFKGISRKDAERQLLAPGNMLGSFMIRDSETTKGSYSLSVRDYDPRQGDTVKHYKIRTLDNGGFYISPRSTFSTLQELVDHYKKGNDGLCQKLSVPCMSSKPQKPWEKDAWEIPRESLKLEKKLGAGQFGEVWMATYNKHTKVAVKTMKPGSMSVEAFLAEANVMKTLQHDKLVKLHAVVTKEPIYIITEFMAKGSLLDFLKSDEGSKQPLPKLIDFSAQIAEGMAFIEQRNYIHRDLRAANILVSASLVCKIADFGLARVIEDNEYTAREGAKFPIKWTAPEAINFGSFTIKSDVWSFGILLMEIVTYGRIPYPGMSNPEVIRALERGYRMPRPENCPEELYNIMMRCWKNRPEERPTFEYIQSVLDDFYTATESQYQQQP
FGFR1, sequence (P11362 whole entry, looked up): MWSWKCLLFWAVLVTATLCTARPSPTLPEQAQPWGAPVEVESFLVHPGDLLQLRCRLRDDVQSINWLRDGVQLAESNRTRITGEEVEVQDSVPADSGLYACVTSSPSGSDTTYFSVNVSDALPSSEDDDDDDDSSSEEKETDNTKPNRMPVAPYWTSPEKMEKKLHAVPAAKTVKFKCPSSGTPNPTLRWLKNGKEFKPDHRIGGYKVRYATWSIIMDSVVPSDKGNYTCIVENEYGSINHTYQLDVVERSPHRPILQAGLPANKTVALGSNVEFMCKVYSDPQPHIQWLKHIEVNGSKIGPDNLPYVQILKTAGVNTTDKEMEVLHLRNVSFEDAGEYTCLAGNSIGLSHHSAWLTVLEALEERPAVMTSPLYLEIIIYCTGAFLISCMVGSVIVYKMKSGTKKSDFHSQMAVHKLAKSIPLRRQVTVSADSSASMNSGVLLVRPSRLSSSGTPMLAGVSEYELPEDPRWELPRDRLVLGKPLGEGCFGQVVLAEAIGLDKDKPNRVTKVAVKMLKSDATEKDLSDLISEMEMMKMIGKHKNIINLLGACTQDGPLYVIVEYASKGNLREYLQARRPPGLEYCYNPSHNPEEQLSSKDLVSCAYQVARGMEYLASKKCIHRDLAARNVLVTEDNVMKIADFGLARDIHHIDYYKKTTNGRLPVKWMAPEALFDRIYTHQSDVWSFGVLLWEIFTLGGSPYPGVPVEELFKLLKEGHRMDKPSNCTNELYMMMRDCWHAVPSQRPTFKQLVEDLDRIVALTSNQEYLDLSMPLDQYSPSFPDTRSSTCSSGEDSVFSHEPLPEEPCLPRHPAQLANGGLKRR

Row | SH2 binding enrichment [14] | SH2 binding enrichment [15] | SH2 binding enrichment [16] | Sequence | phosphorylation enrichment [1] | phosphorylation enrichment [2] | phosphorylation enrichment [3] | phosphorylation enrichment [4] | phosphorylation enrichment [5] | phosphorylation enrichment [6] | phosphorylation enrichment [7] | phosphorylation enrichment [8] | phosphorylation enrichment [9] | phosphorylation enrichment [10] | phosphorylation enrichment [11] | phosphorylation enrichment [12] | phosphorylation enrichment [13]
1 | 0.835 | 0.454 | 0.504 | LREIRYQGGNR [VWF_Y1570_V1565L] | 0.653 | 0.52 | 0.551 | 0.488 | 0.756 | 0.469 | 0.643 | 0.537 | 0.636 | 0.671 | 0.796 | 0.518 | 0.385
2 | 1.03 | 0.753 | 1.38 | QGCGIYKDFFR [PLA2G2D_Y82_S80G_YF] | 1.26 | 0.534 | 0.885 | 6.23 | 5.88 | 3.89 | 1.17 | 0.76 | 1.49 | 0.7 | 1.08 | 0.852 | 0.548
3 | 0.941 | 0.671 | 0.462 | DPASAYADEVK [ETNPPL_Y189_S185P] | 0.794 | 0.435 | 0.724 | 0.416 | 0.492 | 0.557 | 1.06 | 0.495 | 1.2 | 0.473 | 1.06 | 0.469 | 0.628
4 | 0.818 | 0.419 | 0.695 | TGEKLYQHKEF [ZNF283_Y627_R629H] | 0.665 | 0.397 | 0.528 | 0.417 | 0.39 | 0.495 | 0.599 | 0.436 | 0.679 | 0.418 | 0.62 | 0.402 | 0.45
5 | 1.13 | 2.66 | 0.591 | PYTDPYYDYEI [ZC3H18_Y371_A368T] | 1.59 | 3.26 | 14.7 | 6.46 | 4.83 | 2.43 | 1.88 | 4.55 | 1.97 | 18.9 | 3.74 | 3.3 | 2.99
6 | 0.94 | 1.69 | 7 | LAETSYVKVLE [MAGEA1_Y276] | 0.616 | 0.452 | 0.532 | 0.512 | 0.479 | 0.473 | 0.888 | 0.472 | 1.03 | 0.53 | 0.817 | 0.471 | 0.499
7 | 0.681 | 1.62 | 1.14 | HDRNTYEKYLE [TF_Y666_G671E] | 1.08 | 0.506 | 0.748 | 0.995 | 0.856 | 0.736 | 1.24 | 0.715 | 1.21 | 0.584 | 1.07 | 0.595 | 0.505
8 | 1.16 | 1.16 | 1.17 | TQPSPYAVYLF [RPGRIP1_Y823_R827L] | 9.15 | 6.5 | 1.1 | 5.65 | 7.04 | 3.73 | 1.01 | 7.18 | 1.68 | 1.34 | 1.06 | 5.25 | 3.03
9 | 1 | 0.724 | 0.881 | QRMGTYGVRAA [ICAM2_Y260] | 0.637 | 0.618 | 0.702 | 1.58 | 2.06 | 3.44 | 0.983 | 0.852 | 1.14 | 0.754 | 1.26 | 0.657 | 0.685
10 | 0.999 | 0.592 | 0.776 | WQQQSYLDFGI [CTNNB1_Y30_S33F] | 0.658 | 0.418 | 0.757 | 0.544 | 0.524 | 0.441 | 0.974 | 0.39 | 1.04 | 0.816 | 0.883 | 0.564 | 0.635
11 | 0.909 | 0.391 | 0.8 | RDMMDYMPQGV [CYP21A2_Y259_L261P] | 0.912 | 0.681 | 0.823 | 0.596 | 0.636 | 0.578 | 0.986 | 0.937 | 1.36 | 0.799 | 1.41 | 1.28 | 0.921
12 | 1.1 | 1.86 | 1.82 | TTPFNYSFIFK [RAB14_Y8_A4T_YF] | 0.86 | 1.93 | 0.793 | 0.593 | 0.705 | 0.695 | 0.941 | 0.74 | 1.28 | 0.725 | 1.2 | 0.734 | 2.1
13 | 0.868 | 0.525 | 0.548 | LINLKYSVEEE [PCDH19_Y27] | 1.12 | 0.583 | 0.895 | 1.19 | 0.579 | 0.447 | 1.88 | 0.806 | 2.46 | 0.525 | 1.36 | 0.755 | 0.755
14 | 0.789 | 0.845 | 0.684 | MSFDRYMAVCH [OR2A5_Y123_I126V_YF] | 0.931 | 0.567 | 0.738 | 0.473 | 0.585 | 0.638 | 0.927 | 0.558 | 1.1 | 0.532 | 1.09 | 0.838 | 0.858
15 | 0.893 | 0.373 | 0.359 | LRGVIYVILRK [PMP22_Y153_S149R] | 0.778 | 0.393 | 0.833 | 0.713 | 0.65 | 0.509 | 1.15 | 0.577 | 1.09 | 0.665 | 2.21 | 0.551 | 0.58
16 | 0.863 | 0.587 | 0.856 | NNHGNYIVHLG [ETFDH_Y172_R175H] | 0.53 | 0.493 | 0.537 | 0.391 | 0.525 | 0.511 | 0.583 | 0.712 | 0.698 | 0.623 | 0.71 | 2.19 | 4.2

Source: the supplement of paper PMC10065799, “High-throughput profiling of sequence recognition by tyrosine kinases and SH2 domains using bacterial peptide display” (eLife, 2023)
